No end group written: not given here.
Tests used:
[1] = system: mouse primary hindbrain neurons (MPHN); assay: Calcium flux in primary hindbrain neurons; format: cell-based; conditions: MPHN treated with undercarboxylated or carboxylated osteocalcin
Experimental: For calcium imaging, primary hindbrain neurons seeded on 12 mm coverslips were allowed the appropriate time to form structural networks. These cultures were washed with HBSS and loaded with 2.5 μM FURA-2, AM calcium indicator for 45 minutes at room temperature, according to the manufacturer's protocol. Cells were then washed to remove excess indicator and incubated for 30 minutes to allow internalized esters to become de-esterified. 30 ng/ml of osteocalcin was prepared with the control buffer of 1×HBBS supplemented with 10 mM HEPES buffer and 2 mM CaCl2. Using a Zeiss microscope with a perfusion system, coverslips were first perfused with control and osteocalcin. After each stimulation, cells were depolarized with 50 mM KCl to determine the percentage of live cells being imaged. All treatments were recorded using two-photon laser scanning microscopy by Prairie Technologies and analyzed by Z axis profile plotting using ImageJ.
To determine if osteocalcin acts directly on neurons to modulate neurotransmitter synthesis, several types of assays were performed. First, brainstem and midbrain explants from WT and Gprc6a^−/− mice were generated. […] Third, to further confirm that osteocalcin signals in neurons of the hindbrain, calcium flux in MPHN treated with undercarboxylated or carboxylated osteocalcin (FIG. 3F) was measured. […]

[2] = Positive control for blood brain barrier crossing: subcutaneous leptin infusion in ob/ob mice, content measured in brain; format: in vivo, mouse; conditions: subcutaneous infusion 50 ng/hour, seven days, 3 month-old ob/ob mice
Experimental: FIG. 3. Osteocalcin binds to neurons in the brain. (A) Measurement of the total osteocalcin in 3 month-old Osteocalcin^−/− mice infused subcutaneously for 7 days with either uncarboxylated osteocalcin (300 ng/hour, right panel) or PBS (left panel). Osteocalcin levels were measured in bone, serum, and different parts of the brain (cortex, midbrain, hypothalamus, brainstem, and cerebellum). (B) Subcutaneous infusion of leptin ([…], right panel) or PBS (left panel) for 7 days in ob/ob mice. Leptin levels were measured in serum, cortex, midbrain, hypothalamus, brainstem, and cerebellum. […]
Osteocalcin^−/−, Gprc6a^−/−, Osteocalcin-mCherry, and Osteocalcin floxed mice have been previously described (Ducy et al., 1996, Nature 382:448-452; Oury et al., 2011, Cell 144:796-809). Mouse genotypes were determined by PCR. […] Leptin and osteocalcin content in sera and tissues were determined by ELISA.
To understand how this behavioral phenotype develops, whether osteocalcin crosses the blood brain barrier (BBB) was tested by installing pumps that subcutaneously delivered vehicle or uncarboxylated osteocalcin (50 ng/hour) in three-month-old Osteocalcin^−/− mice. […] Seven days later, osteocalcin and leptin content were measured in blood, bone, and in various parts of the brain in Osteocalcin−/− and ob/ob mice, respectively. […]

[3] = system: brainstem and midbrain explants from WT and Gprc6a-/- mice; assay: Gene expression (qPCR) in brainstem and midbrain explants; format: cell-based, mouse; conditions: leptin, WT or Gprc6a-/- brainstem explants
Experimental: For gene expression studies, RNA was isolated from primary neurons or tissue using TRIZOL® (Invitrogen). cDNA synthesis was performed following a standard protocol from Invitrogen and qPCR analyses were done using specific quantitative PCR primers from SABiosciences (www.sabiosciences.com/RT2PCR.php).
Brains were dissected and incubated for 30 minutes in ice cold oxygenated artificial cerebrospinal fluid (ACSF). Brains were then sliced at 500 μm at the midbrain, −1.55 to −2.35 mm from the bregma, and at the level of the brainstem, from −4.04 to −4.48 mm and from −4.60 to −5.20 mm from the bregma, to include the median and dorsal raphe, respectively. These slices were incubated in ACSF for 1 h, constantly oxygenated (95% 02 and 5% CO2) for 4 h, after which they were treated with either osteocalcin (10 ng/ml) or PBS for four hours. Expression of Tph2, TH, GAD1, GAD2, and Ddc was measured by qPCR.
To determine if osteocalcin acts directly on neurons to modulate neurotransmitter synthesis, several types of assays were performed. First, brainstem and midbrain explants from WT and Gprc6a^−/− mice were generated. Brains were sliced (500 μm) at the level of the median and dorsal raphe of the brainstem (from −4.04 to −4.48 mm and from −4.60 to −5.20 mm, respectively), so that they would be enriched in serotonin-producing neurons, as well as at the level of substantia nigrae and ventral tegmental areas (VTA) of the midbrain (from −1.55 to −2.35 mm and from −2.55 to −3.25 mm, respectively). Enrichment in serotoninergic and catecholaminergic neurons in these explants was verified by their high Tph2 and Th expression. While leptin, used here as a positive control, reduced, as it should, Tph2 expression in WT or Gprc6a^−/− brainstem explants, osteocalcin (3 ng/ml) increased expression of this gene 2.5 fold in both WT and Gprc6a^−/− explants. (FIG. 3D). Additionally, osteocalcin increased Th expression in midbrain explants and decreased Gad1 expression in both WT and in Gprc6a^−/− hindbrain explants (FIG. 3D). Second, the cultured WT and Gprc6a^−/− mouse primary hindbrain neurons (MPHN) were treated with osteocalcin (3 ng/ml). […] Third, to further confirm that osteocalcin signals in neurons of the hindbrain, calcium flux in MPHN treated with undercarboxylated or carboxylated osteocalcin (FIG. 3F) was measured. […] Moreover, osteocalcin inhibits the action potential frequency of the GABAergic interneurons of the hindbrain (FIG. 3H).

| Molecule | calcium fluxes in primary hindbrain neurons [1] | leptin content in parts of the brain [2] | Tph2 expression in brainstem explants (positive control) [3] |
| --- | --- | --- | --- |
| carboxylated osteocalcin: Carboxylated (Gla) form of osteocalcin used as comparison in the calcium flux assay (YLGASVPSPDPLEPTREQCELNPACDELSDQYGLKTAYKRIYGITI; ends and bridges not checked; also: gamma-carboxylated (Gla) form, places not given here; UniProt P86546 50-95, looked up) [reference compound] | not |  |  |
| leptin: adipocyte-derived hormone, positive control known to cross the BBB (protein, UniProt P41160 22-167, looked up) Leptin: VPIQKVQDDTKTLIKTIVTRINDISHTQSVSAKQRVTGLDFIPGLHPILSLSKMDQTLAVYQQVLTSLPSQNVLQIANDLENLRDLLHLLAFSKSCSLPQTSGLQKPESLDGVLEASLYSTEVVALSRLQGSLQDILQQLDVSPEC |  | could be detected in the brainstem and hypothalamus | reduced |

— US10052364B2, “Osteocalcin as a treatment for cognitive disorders” (THE TRUSTEES OF COLUMBIA UNIVERSITY IN THE CITY OF NEW YORK, priority 2013, dated 2018)
